These results are taken from US20250304712A1 (NATIONAL UNIVERSITY OF SINGAPORE, published 2025).

Test [1] has as its target T1, Lymphocyte antigen 6 family member K (LY6K) expressed on the cell surface of human cells (human, UniProt Q17RY6 18-138).
T1 construct: whole, on cells; overexpressed in HEK293T for ADCC; also called LY6K on Ca Ski, Calu-1 and other human cancer cell lines; HEK293T-Ly6K overexpressing cells
T1 sequence (looked up): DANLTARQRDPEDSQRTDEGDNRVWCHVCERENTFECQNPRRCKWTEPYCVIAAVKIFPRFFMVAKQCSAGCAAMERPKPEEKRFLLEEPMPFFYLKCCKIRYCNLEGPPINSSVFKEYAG
Nature of the test: flow cytometry on Calu-1 cells.

In test [2] the target is T1, Lymphocyte antigen 6 family member K …. Nature of the test: flow cytometry on human cancer cell lines. (In general: A flow cytometer gives signals particle by particle.)

B1: humanized 22C-G8 (antibody, V domains shown)
VH: QVQLVQSGAEVKKPGASVKVSCKASGYTFTSYWMHWVRQAPGQGLEWIGEINPSNGGANYNEKFKRRATMTVDKSTSTVYMELSSLRSEDTAVYYCTMGGNFFFAYWGQGTLVTVSS
VL: DVVMTQSPLSLSVTLGQPASISCKSSQSLLASDGKTYLNWFQQRPGQSPRRLIYLVSKLDSGVPDRFSGSGSGTDFTLKISRVEAEDVGVYYCWQGSHFPLTFGGGTKVE
notes: CDR-grafted into human frameworks; also called Hu22C-G8; Hu 22C-G8
For B1, the binding result in test [1] is recorded as “binds”.

B2: murine anti-LY6K antibody G57 (antibody, V domains shown)
VH: EVQLVESGGDLVKPGGSLKLSCAASGFTFNSYGMSWVRQTPDKRLEWVATISSGGTYTYYSDSVKGRFTISRDNAKNILYLHMSSLKSEDTAMYYCARHDWDFFDYWGQGTTLTVSS
VL: DVVMTQTPLSLPVSLGDQASISCRSSQSLVHTDGDTYLNWYLQKPGQSPKLLIYKVSNRFSGVPDRFSGSGSGTDFTLKIRRVEAEDLGVYFCSQNTHVYTFGGGTKLE
notes: Hybridoma-derived; also called Ms G57
Regarding B2, the binding result in test [2] is “binds”.
